This note sets out measurements from article PMC5706562.

The experiment deals with Psy2 with aa 25–129 deleted, fused to lexA-DBD (S. cerevisiae). Kind of experiment: two-hybrid.

B1: DDC2 fused to B42-AD (natural protein)
chain: MRRETVGEFSSDDDDDILLELGTRPPRFTQIPPSSAALQTQIPTTLEVTTTTLNNKQSKNDNQLVNQLNKAQGEASMLRDKINFLNIEREKEKNIQAVKVNELQVKHLQELAKLKQELQKLEDEKKFLQMEARGKSKREVITNVKPPSTTLSTNTNTITPDSSSVAIEAKPQSPQSKKRKISDNLLKKNMVPLNPNRIIPDETSLFLESILLHQIIGADLSTIEILNRLKLDYITEFKFKNFVIAKGAPIGKSIVSLLLRCKKTLTLDRFIDTLLEDIAVLIKEISVHPNESKLAVPFLVALMYQIVQFRPSATHNLALKDCFLFICDLIRIYHHVLKVPIHESNMNLHVEPQIFQYELIDYLIISYSFDLLEGILRVLQSHPKQTYMEFFDENILKSFEFVYKLALTISYKPMVNVIFSAVEVVNIITSIILNMDNSSDLKSLISGSWWRDCITRLYALLEKEIKSGDVYNENVDTTTLHMSKYHDFFGLIRNIGDNELGGLISKLIYTDRLQSVPRVISKEDIGMDSDKFTAPIIGYKMEKWLLKLKDEVLNIFENLLMIYGDDATIVNGEMLIHSSKFLSREQALMIERYVGQDSPNLDLRCHLIEHTLTIIYRLWKDHFKQLREEQIKQVESQLIMSLWRFLVCQTETVTANEREMRDHRHLVDSLHDLTIKDQASYYEDAFEDLPEYIEEELKMQLNKRTGRIMQVKYDEKFQEMARTILESKSFDLTTLEEADSLYISMGL
Take B1: the percent reduction of the two-hybrid interaction is 50%.
